This note sets out measurements from US6627193.

This data set concerns the target purified human protein C (PC), P04070.

purified human protein C (PC), P04070, sequence (P04070 whole entry, looked up): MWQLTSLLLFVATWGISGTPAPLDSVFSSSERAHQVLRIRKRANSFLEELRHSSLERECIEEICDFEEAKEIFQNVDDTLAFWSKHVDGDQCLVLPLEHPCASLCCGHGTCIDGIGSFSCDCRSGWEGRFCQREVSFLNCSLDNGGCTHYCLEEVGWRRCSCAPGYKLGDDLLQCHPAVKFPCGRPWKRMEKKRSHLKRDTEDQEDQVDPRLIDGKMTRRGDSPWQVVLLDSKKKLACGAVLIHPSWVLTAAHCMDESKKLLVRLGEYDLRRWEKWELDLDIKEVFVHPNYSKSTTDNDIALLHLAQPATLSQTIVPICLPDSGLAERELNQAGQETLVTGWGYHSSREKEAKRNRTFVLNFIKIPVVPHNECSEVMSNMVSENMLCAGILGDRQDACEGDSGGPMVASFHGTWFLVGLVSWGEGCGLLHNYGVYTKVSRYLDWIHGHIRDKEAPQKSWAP

B1: TLCK-inactivated RgpB (protein)
chain: YTPVEEKENGRMIVIVAKKYEGDIKDFVDWKNQRGLRTEVKVAEDIASPVTANAIQQFVKQEYEKEGNDLTYVLLVGDHKDIPAKITPGIKSDQVYGQIVGNDHYNEVFIGRFSCESKEDLKTQIDRTIHYERNITTEDKWLGQALCIASAEGGPSADNGESDIQHENVIANLLTQYGYTKIIKCYDPGVTPKNIIDAFNGGISLVNYTGHGSETAWGTSHFGTTHVKQLTNSNQLPFIFDVACVNGDFLFSMPCFAEALMRAQKDGKPTGTVAIIASTIDQYWAPPMRGQDEMNEILCEKHPNNIKRTFGGVTMNGMFAMVEKYKKDGENMLDTWTVFGDPSLLVRTLVPTEMQVTAPANISASAQTFEVACDYNGAIATLSDDGDMVGTAIVKDGKAIIKLNESIADETNLTLTVVGYNKVTVIKDVKVEGTSIADVANDKPYTVAVSGKTITVESPAAGLTIFDMNGRRVATAKNRMVFEAQNGVYAVRIATEGKTYTEKVIVK
Consider B1, for which the “APC activity generated from purified PC” value is reported as “TLCK-treated enzymes did not induce PC activation”.

B2: RgpB (50 kDa gingipain R, RGP-2) from Porphyromonas gingivalis HG66 (protein)
chain: B1 chain
In the case of B2, the “APC activity generated from purified PC (amidolytic assay with Boc-Leu-Ser-Thr-Arg-MCA)” value is “Both proteinases generated APC linearly in a dose- and incubation time-dependent manner”; the “APC activity generated in human plasma” value is listed as “with RgpB negligible APC was detected”; the Km (activation of human protein C) came to 3.8 µM; the kcat (activation of human protein C) is 0.015 s⁻¹. Also, the kcat/Km (activation of human protein C) amounted to 3900 M⁻¹ s⁻¹.
